In data set [1] the test system is G44P (Bacillus subtilis bacteriophage SPP1). Description: EMSA. The conditions noted are these: EMSA: 50 mM Tris-HCl pH 7.5, 50 mM NaCl, 50 ng/ul BSA, 5% glycerol, 1 mM EDTA, 0.2 nM DNA, 37 C, 15 min (20 min in Fig 4 legend), 6% PAGE. (A gel shift assay detects complexes by their altered migration in electrophoresis.)
Data set [2] concerns the target gene 44 product (G44P) of Bacillus subtilis bacteriophage SPP1 (Bacillus subtilis bacteriophage SPP1). The data set is described as follows: SEC; FPLC gel filtration on Superdex 75 in buffer A (50 mM phosphate pH 7.5, 5% glycerol, 1 mM EDTA) with 1 M NaCl, 0.5 ml/min; 30 µg protein in 200 µl; mass from a standard curve of Kav versus log10 of molecular mass. In general terms: SEC sorts molecules by how far they enter the pores of the column.

For orientation: stoichiometry N means the number of molecules, sites or subunits per partner or assembly.

For DL-D (D-loop), the K half in data set [1] stood at 5 nM.

In turn, “gene 44 product (G44P) of Bacillus subtilis bacteriophage SPP1 (enzyme)” registered a stoichiometry N in data set [2] of 2. The substance “CGCAAGCGACAGGAACCTCGAGAAGCTTCCGGTAGCAGCCTGAGCGGTGGTTGAATTCCTCGAGGTTCCTGTCGCTTGCG / CGCAAGCGACAGGAACCTCGAGGAATTCAACCACCGCTCAACTCAACTGCAGTCTAGACTCGAGGTTCCTGTCGCTTGCG / CGCAAGCGACAGGAACCTCGAGTCTAGACTGCAGTTGAGTCCTTGCTAGGACGGATCCCTCGAGGTTCCTGTCGCTTGCG / CGCAAGCGACAGGAACCTCGAGGGATCCGTCCTAGCAAGGGGCTGCTACCGGAAGCTTCTCGAGGTTCCTGTCGCTTGCG [HJ-J3]” had a K half in data set [1] of 10 nM. In turn, “CGCAAGCGACAGGAACCTCGAGGAATTCAACCACCGCTCAACTCAACTGCAGTCTAGACTCGAGGTTCCTGTCGCTTGCG (double strand) [80-bp dsDNA]” gave a K half in data set [1] (complexes unstable in gel) of 48 nM.

These data come from article PMC3485210.
